This is an account of results in the supplement of paper PMC12042874.

± gives the uncertainty stated by the source.

This series is described as follows: amyloid nucleation score (Sup35N fusion, yeast selection) (log enrichment); library NNK3; higher = more nucleation; inactive = no reads after selection. The method, boiled down:
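Peptides of 20 random codons fused to Sup35N were expressed in psi-negative yeast, induced 24 hours with 100 μM copper sulfate, then grown 7 days at 30°C on medium lacking adenine and uracil. Input and output plasmid inserts were Illumina-sequenced. Nucleation score is the DiMSum log enrichment of output over input reads, centred on the mode score of non-aggregating sequences, excluding sequences with under 100 input reads. Random libraries had three technical output replicates.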

On to TKDGHYA, for which the amyloid nucleation score entry is “inactive”.
For ASFISCSIMYYFIVFCL, the amyloid nucleation score result is “inactive”.
Consider FANFSILS, for which the amyloid nucleation score result is “inactive”.
Then TRLKFTLDWELM, with 1.06 ± 0.098; and GRGIYGIIARASAPVRRSLV, with “inactive”; and SAYKKASVWGLRLQSSRS, with “inactive”.
DICHWVEYFV: the amyloid nucleation score entry is “inactive”.
As to SSVKMTDLRH, the amyloid nucleation score result was “inactive”.
Then MGKVARRA, with “inactive”; and TMVICLSLLRNMILHF, with “inactive”; and WKSPVYAYVWNSGPFRRQGK, with “inactive”.
Turning to IPVCAWRWSG, the amyloid nucleation score entry is “inactive”.
Then KVTMPLQSYTLYSMYICLLS, with “inactive”; and NRMLNYIFDTTS, with “inactive”.
TDFMSFINVERMCVILYPFA had an amyloid nucleation score of 1.36 ± 0.077.
With WTQAGQIRMRKRSR, the amyloid nucleation score entry is “inactive”.
Under NDREWNKRYGINTKQPAAVT stands “inactive”; under VCYPHLYWMDPGWVS, “inactive”.
Substance NRRVCYSLISMGIVLVCRYG returned an amyloid nucleation score of 0.306 ± 0.22.
HKFFAYDGGDRKRGIFGGWL had an amyloid nucleation score of 1.25 ± 0.1.
Turning to LIDMVVFNYKLVIRVRKGSL, the amyloid nucleation score result was “inactive”.
Consider SYGQSCCQDTGLSRNALMQ, for which the amyloid nucleation score entry is “inactive”.
As to GCWECPTYQMLCTRVCLTWT, the amyloid nucleation score entry was “inactive”.
In the case of RTTVVYTLNLSGTNRRPCYN, the amyloid nucleation score was determined as 1.66 ± 0.084.
As to DSNVRSFVSMLSVN, the amyloid nucleation score entry is “inactive”.
As to SLMIG, the amyloid nucleation score result was “inactive”.
Turning to ILSLAGSKWCWEKYRMGS, the amyloid nucleation score result is “inactive”.
Then VIKVWLLCRRIVSVQFLAP, with “inactive”; and FEFYTMWSIWARVLFPLKIY, with “inactive”.
The substance RRCNVMLKNDLNCLPSSLFI showed an amyloid nucleation score of 0.322 ± 0.62.
Then CYLFVLL, with “inactive”.
As for ALYWTEYQ, the amyloid nucleation score entry was “inactive”.
Under PCHPRGKRENTMRAWGRSCE stands “inactive”.
For TVHKVSGKDQGWMYGHMLFC, the amyloid nucleation score entry is “inactive”.
Turning to NITVHVNRMKFCCMYAESHD, the amyloid nucleation score entry is “inactive”.
Consider LQRTWLKVFGASCFICDDFL, for which the amyloid nucleation score came out at 1.99 ± 0.097.
Then LCESSLKDNGVTSLFVWVLK, with “inactive”.
Take CTVPMPDSVNVSAE: the amyloid nucleation score entry is “inactive”.
The substance CQSPDALVRWGR registered an amyloid nucleation score of -0.087 ± 0.93.
Then VTCSRSLRLSKMFPNKMFLI, with “inactive”; and HVLLDPEIITA, with “inactive”.
In the case of YRILRL, the amyloid nucleation score entry was “inactive”.
FGQYWKRCTTCLCGWPTGIG: the amyloid nucleation score result was “inactive”.
As for QNHSNVGTFDDSA, the amyloid nucleation score result was “inactive”.
As for FMKILQVTDWDPGSVYNSSN, the amyloid nucleation score result was “inactive”.
As for VIIINRVIENRWSDRHEITN, the amyloid nucleation score was found to be 2.57 ± 0.053.
The substance VIYVKSIMSFSLCDFDY showed an amyloid nucleation score of 3.11 ± 0.074.
WSYTAKGVW: the amyloid nucleation score entry was “inactive”.
In the case of MYTCLVPSSLK, the amyloid nucleation score entry was “inactive”.
Turning to NFSNHCRKLGEME, the amyloid nucleation score entry was “inactive”.
On to MECELHTDGRSVACRHT, for which the amyloid nucleation score result was “inactive”.
In the case of LLKVVD, the amyloid nucleation score result is “inactive”.
Then MRWVHSHANHPLHA, with “inactive”.
Under QYLEAWRCTHFTVGALLLMG stands “inactive”.
Turning to ISVSRKLLKCLVKCMNPGCG, the amyloid nucleation score result was “inactive”.
Then VIKTLTHSFHLTNGFGTSYI, with “inactive”; and FMTVQLLH, with 1.85 ± 0.1; and DNDLQSTKSPLWGVHQANVR, with “inactive”.
As to GFSYMLVFSNGVYMLIRIRW, the amyloid nucleation score entry is “inactive”.
With LMNYRMGWWFVCENYNEML, the amyloid nucleation score was 0.571 ± 0.17.
TVARMRFSTMTRDAQCVGRL yielded an amyloid nucleation score of 0.107 ± 0.9.
As for KLGGLSMRTSYIMPGRTFTS, the amyloid nucleation score result is “inactive”.
For KIFSSLFRK, the amyloid nucleation score turned out to be 0.251 ± 0.18.
Turning to KITSRGCN, the amyloid nucleation score result was “inactive”.
For NLVNFYYLVRAFDCELLFRG, the amyloid nucleation score entry is “inactive”.
Under KRDWHLVTMG stands -0.134 ± 0.32.
On to SFLLFYVLRYP, for which the amyloid nucleation score result is “inactive”.
IKPSAS: the amyloid nucleation score result is “inactive”.
Then LRGVGDRIGNTSGISGLWPG, with 0.759 ± 0.19.
Regarding LRCHLRKGSRISRSL, the amyloid nucleation score result is “inactive”.
Then VGMGLAKDVR, with “inactive”; and VFVFLPSWDISYDDPRGWSV, with 0.241 ± 0.19; and QMSGMFTLVDWT, with “inactive”.
ELLVVFEESIVINFLDANIW registered an amyloid nucleation score of 0.674 ± 0.2.
As for NLYFGHKSTS, the amyloid nucleation score result is “inactive”.
With RRYSRIRYRRKLVNWLFYIM, the amyloid nucleation score entry is “inactive”.
Turning to IEVIYGV, the amyloid nucleation score entry is “inactive”.
Regarding RGPVNCYYRISPRRPRHVSE, the amyloid nucleation score result is “inactive”.
GSWDI: the amyloid nucleation score entry was “inactive”.
With VSCSPMYEEYRHGNLAEYNE, the amyloid nucleation score was -0.559 ± 0.94.
Substance MWVGDKPSGSRRLVLGVRVT came in with an amyloid nucleation score of -0.258 ± 0.91.
Take EGDYECGNTWQNGGSTSEDP: the amyloid nucleation score entry was “inactive”.
As to SREQIVCQVRSITLAYKNSV, the amyloid nucleation score entry was “inactive”.
As for SGGVFCYQGSPGVVY, the amyloid nucleation score result was “inactive”.
IDFIVLSSL: the amyloid nucleation score entry was “inactive”.
Under LSLVQGR stands “inactive”; under QRDVDLMVSIGTPTSNRYET, “inactive”; under TLRNGQMTIGYCSKGISEVG, “inactive”.
In the case of CLDPRGRNRAGPAVIGGPSV, the amyloid nucleation score entry was “inactive”.
With TKFNG, the amyloid nucleation score is 0.709 ± 0.19.
On to PGIQYPSCRKLVIIYMSCL, for which the amyloid nucleation score entry is “inactive”.
The substance ARIYCSWYPLYTFYLIHSH came in with an amyloid nucleation score of 0.644 ± 0.2.
As for IDKVLGPKVPAHRTSGGLSK, the amyloid nucleation score entry was “inactive”.
With IFFQCNVAMQKDSDAKGTYV, the amyloid nucleation score came out at 1.84 ± 0.067.
VNILVFLCFAPSLSSRYWWL: the amyloid nucleation score was 2.28 ± 0.081.
Take LCYNVKSVCGQTMLQLVE: the amyloid nucleation score entry is “inactive”.
Take SRKWCQFYSCIIYTTNLLGR: the amyloid nucleation score was determined as 1.85 ± 0.069.
Then FHIGLSITVT, with “inactive”; and FWVRYGPNSQGVGPWTMHRW, with 0.189 ± 0.74.
In the case of FISGVYMKCIGCSS, the amyloid nucleation score result was “inactive”.
With FGAAFQNYVKFPVPKMFTCH, the amyloid nucleation score result is “inactive”.
With NDCISHVSSCRMYDETKVCL, the amyloid nucleation score entry is “inactive”.
Then SNSFVDFRHSDWF, with “inactive”; and TLIFRLYLRRNCNAVFCFVV, with 0.084 ± 0.56.
Take LQDIPLFFCCVLFCVATMAL: the amyloid nucleation score result was “inactive”.
Substance ANCVALTIVSYQVARDMKSK came in with an amyloid nucleation score of 1.36 ± 0.087.
On to IREYCFH, for which the amyloid nucleation score entry is “inactive”.
Take IYGNSFPEGIHRTGWESYHR: the amyloid nucleation score result was “inactive”.
Regarding WKLGLK, the amyloid nucleation score result was “inactive”.
With GDSSVTWI, the amyloid nucleation score entry is “inactive”.
Then VVCFLYIRSYNQGLCRSYFR, with 2.29 ± 0.091; and VRLSVMG, with “inactive”.
Take SCILHYSDYATWLGRYVKVI: the amyloid nucleation score result is “inactive”.
Regarding VSSLR, the amyloid nucleation score entry is “inactive”.
Consider QTHMTFYVCMFRGTCNGNMC, for which the amyloid nucleation score is 2.1 ± 0.051.
Turning to LVSERKAKNSRSGSLAFFRR, the amyloid nucleation score entry was “inactive”.
ACYFWS: the amyloid nucleation score result is “inactive”.
Regarding CCNFWRMPMTLCRNSCSSST, the amyloid nucleation score stood at 0.718 ± 0.17.
Take VTRQLYVMGFVGHDEEGVVS: the amyloid nucleation score result was “inactive”.
Consider ILVLRHA, for which the amyloid nucleation score result was “inactive”.
Turning to GNYVTVHIYVKAVFGNG, the amyloid nucleation score entry is “inactive”.
As to LTIVAYVVATYSFCWWISVG, the amyloid nucleation score entry was “inactive”.
Regarding YIFGNFRHTSGGYCVLSVLK, the amyloid nucleation score result is “inactive”.
On to KRMLCWFINKVIYLRYLWQV, for which the amyloid nucleation score entry was “inactive”.
Turning to RREGGTPIAHPLLGPGP, the amyloid nucleation score is -0.076 ± 0.73.
Regarding FDPYFVFHNWVLYWFRVFTF, the amyloid nucleation score result is “inactive”.
Turning to LLANDSWF, the amyloid nucleation score entry is “inactive”.
Then FFKICFRAKYIGNLSPLLK, with “inactive”; and TAALRIDDQRKAYLGVPRFS, with “inactive”; and FSITVFFVNIAATSKPYLDK, with “inactive”.
With YMQQSR, the amyloid nucleation score result is “inactive”.
For DYVIVCAMEKLNRTVLWAQG, the amyloid nucleation score result is “inactive”.
For the substance LFRVDRPTNCGPYFAYHEYT, the amyloid nucleation score entry was “inactive”.
Regarding FCGAYLVVIAEFL, the amyloid nucleation score result is “inactive”.
